# From the DeepSol protein solubility set
# Assay: soluble on expression in E. coli; label from the status in PepcDB or PDB records
row,Sequence,soluble on expression in E. coli
1,MSLSAPASEIAALILRGFDDYREQFREITDGARARFEQAQWQEAQRASAQRINLYEEKVAETVAGLRAGLADSELLDVERWPIIKSAYIAQIDLRLDDELAETWFNSIFCGLFSHDNISDGTMFVHTTRPSLRAHARAPYTRTYRPGGDLRQALEKIFDDYRFDVPYDDRERDLERIDALLHSNLPDWVCKDPDLAIELIGSVFYRNKGAYLVGRLFTPDEQWPLVFPLLHREDHGIQFDTVITDEAEVSIIFSFTRSYFMVDVPVPAELVAFLKRLLPGKHLAELYTSIGFYKQGKSEFYRALINHLATTDDRFVMAPGVRGMVMSVFTLPGFNTVFKIIKDRFNPSKSVDHATVIQKYQLVKNHDRVGRLADTQQFADFRFPVSKFEPECLAELLEVAPSTVVMEGDVVLIRHCWTERRMTPLNIYLENASEAQTREALNDYGLAIKQLAAANIFPGDMLLKNFGVTRHGRVVFYDYDEICYLTEVNFRYIPEPRFPEDEMSSEPWYSVGPNDVFPEEFPRFLFVDLNQRRLFAKLHGNLYDAKYWQGLQEQIREGKVIDVFPYRRQETPEQLLEGHHHHHH,soluble
2,MGHHHHHHSHMEKIKIIVASDSIGETAELVARAGISQFNPKQCKNELLRYPYIESFEDVDEVIQVAKDTNAIIVYTLIKPEMKQYMSEKVAEFQLKSVDIMGPLMDLLSASVEEKPYNEPGIVHRLDDAYFKKIDAIEFAVKYDDGKDPKGLPKADIVLLGISRTSKTPLSQYLAHKSYKVMNVPIVPEVTPPDGLYDIDPKKCIALKISEEKLNRIRKERLKQLGLGDTARYATEARIQEELNYFEEIVSEIGCPVIDVSQKAIEETANDIIHYIEQNKSK,soluble
3,MGSDKIHHHHHHMSKTIQAITNQIWSMANELRGNMDASEYKNYILAFMFYRYLSEHQERFLVEDEIISPAPGETVQDAYVREAVGNDLVEHLENTASHLGYAIEPEDTWARLVAKIDNSEIVASDYQTIFDHFNANVELNRDAMEDFRGVFNDINLGDSRLGNSTVARAKSLNSIVKLIDSIEYKNDEGKDILGEIYEYLIGQFAASAGKKGGEFYTPHQVSKILAKIVTLGLEKSDTSFSVYDPTMGSGSLLLTVRNELPQGQHIKFYGQEMNTTTYNLARMNLMMHQVSYSNMILNNADTLESDWPDGVDELGIDQPRSFDAVVANPPYSAKWDNRESKLKDPRFMEYGKLAPASKADFAFILHSLYHLNNTGTMAIVLPHGVLFRGAAEGHIRKLIIEKNYLDAVIGLPANLFYGTGIPTTILVFKKNRQTKDVFFIDASKEFEKGKNQNHLSDDMVEKIVETYHNRQSVDKYAHLASIEEIVENDYNLNIPRYVDTFEEEEEIDLGQVTQQLEQDRLEIRALEDKIRQQLKTLGVDF,not soluble
4,CIIDKVTAVRRLNVLTLNVHKGFTFFNRRFILPELREAVRATGADLVFLQEVHGSHQQHALRHPAWPETPQYEFLADSMWPQFAYGRNAVYPHGDHGNALLSKFPIRRFNNLDVSVQGNEQRGLLHCQLEVPGHDEVHAVCVHLGLREAHRQRQVKLMLDLLASLPPNAPVIIAGDFNDWRLKADAVLSEHLTEAFGTPARSFPARLPLLRLDRIYLRNAVPGAAQVLSKYPWSHLSDHVPLAAEINL,not soluble
5,MAHHHHHHMLRRSVVNLQNPARVFRSAAKRQKLDEAVRVDQAGEVAAVRICKYQLLWMSPLDSGVPVVKEILRDELVHEEVMGHLARKHSVRLTLLDPLFHVGAFVMGSCTALLGKDAVMCCHAAVEVTIAQHYNDQLRELQSLEESEGASKGKDEKDWAEVMEYVARFRDEELHHQELGEQNGAENAPAYPLLYNGIRIMCSLGVALAKRI,not soluble
6,MSLKIKSIKAITLSMPFSHGGKKVIFHGKEWKSLEFNLVKVETDKGIIGWGEAFGYTSWKAVKIAIEDMVAPLLVGKDMTNIPELILILQKSLHLFGRYGITMFAISGVEIALWDALGKEKNKPIHELLGKKNKDLFKAYSSLFRYGDPKIVEQKCKQSLDDGYQAIKLHEIENNCIEAGRKGTGNLPLMLDTNCPWTYEETLAKKNFLQEMRLTWLEEPIYPPEDYQTLAKLKKELDIPIACGENACTEFEFKSIIDQNAVTYVQPSVIKVGGIYEMFKIIQHAEKNNILVMPHTAYFGPGFLATLQLASLMKNETYIERFYLDIDQEFYPNFKRALNGKYKLPSGPGLGIDLDYKKLSKYEIEGHHHHHH,soluble
7,MSLKVWGRGSSFNVQKVLWLVGELGLSHRHIPAGGDHGGLDEPSFLAMNPHGRVPVIDDGGVMVWESHAILRYLAARYGGSEWWPASPVDRAQADGWMDWAQTALQRDFLTGVFWGWYRTPEPERDNDAIRTALAACAKHFLLLDQILANRPFLGGDQPGLADIPCGTHLFRYYALEIDRPRTPNVEAWYARLQARPAYRKAVMIPFDEMKGRLAYEGHHHHHH,soluble
8,FDSFKIEGRAKNADYVMRTTKIYREAIDSVLDGSYYDKLEYFKKELQKVYNRSYDTGFYFRDINKNHDFQYEIEGNASKYRKIEIGRVVNFYKKVSVAEIELWHDLKIGDTILIIGKTTGCVEEVVKSMQINHKDVEIAKKGERVGVKLNHLVREGDRVYLLKET,not soluble
9,MAHHHHHHMSLQAGGVVNGVIPGVVPPHDRTQEVCKYFVNGGCLRGANCPYLHELPDERHLDVNGLGFILNPNVHNAQKTVASPQTQVAASTPSQPLKASGSSFTMMLNNQNASQSRVFSPTKAAKHQPPSMSGSSSASPQTMQMGKLPAPPKYNPPEPYLELNLPPALAFPLKVPAKDTTATLTHLMLQN,not soluble
10,MSLERQTLKQKLSTLIQPLQTAKRGAPLTNRTLSATTCQQIESLVTAIEALNPNLSPLLYSPQLLDGNWWLNYSTAREIRSLDKLPLGLKVGRIYQIINVPNQSFLNQAFVYHPLGLAKGYVKVTAKFEIAKPAGTVLPDKRINVEFLERMISIQKLMGVPTPKLDPAKVVPARSPEGRIPFLEITYLDDDLRIGRGGEGSLFVLSKVSEVTPLEHHHHHH,not soluble
11,MSLGHAKEVKIGVILGFTGPIESLTPSMADGAELAMKEVTDSGLLLDGATVTSVRADSTCVDAAAATAAAERLVTSDKVDGIMGADCSGVTGAILSNVAVPNGVVMISPSATSPALSTADDNGLFFRTAPSDARQGVVMTEVLMEEGIKEVALTYTNNDYGKGLADSFQAAFEAAGGTVTISAAHEDGKADYSAEVGALAAAGGDRLVVAGYVDQGGSGIVRSAIDSGAFDTFHFPDGMIGAKLEENFGDEIEGSSGQHPGTDSPGVAKFSEMVGGAFDSTSPFTPEAYDAAALIMLAMQAANSKDSGDYKDHVMHVANAPGEKIYPGELAKALQIIKDGGEVDYVGATAVELIGPGESAGNYRQITIEGGKITTAKFREGHHHHHH,soluble
12,MPLSAQQLAAQKNLSYVLAEKLAQRILKGDYAPGTILPGEIELGEQYGVSRTAVREAVKTLTAKGMVLPRPRIGTRVMPQGNWNFLDQELLTWWMTEENFHQVVEHFLVMRISLEPQACLLAATLGTPEQKARLNALMEEMVALKKHFKRERWIEVDMAWHEHIYEMSANPFLISFATLFHSVYHTYFTSITYNEVVKLDLHQAIVDAIADGDGERAFQACQALLIAPNERPDN,not soluble
13,MKRIPIKELIVEHPGKVLILDGGQGTELENRGININSPVWSAAPFTSESFWEPSSQERKVVEEMYRDFMIAGANILMTITYQANFQSISENTSIKTLAAYKRFLDKIVSFTREFIGEERYLIGSIGPWAAHVSCEYTGDYGPHPENIDYYGFFKPQLENFNQNRDIDLIGFETIPNFHELKAILSWDEDIISKPFYIGLSVDDNSLLRDGTTLEEISVHIKGLGNKINKNLLLMGVNCVSFNQSALILKMLHEHLPGMPLLVYPNSGEIYNPKEKTWHRPTNKLDDWETTVKKFVDNGARIIGGCCRTSPKDIAEIASAVDKYS,soluble
14,MGSDKIHHHHHHMDNEIVSSWHQGELAVQQRAGTDERMAEIGPKFIREFMPQQHRDFFQSLSMIFVGYTDHCSNAYASVLFGAPGFIQSPTETELVINTQSTIGDFIIEDLREGDHIGLVGIEFDTKRRNRINGVITDINQKNIKVKVLQSYGNCPKYIQPKEFAPNRSYSEFTTVSLDQLSQKYREIISSADTFFIASSFDDGQKFRNRGVDVSHRGGEVGFVSINAAGQLLVDDYVGNGFFNTLGNLLENPIASLLFCDWQTGHVLKIAVSSEILWHDEQQDSVVLAAGKVKRSLCFTPIKIEQFNNGLAYIQQF,not soluble
15,MRREALKTAVLKIMIEKMELKNVTHLEETMRLNQDLYIDSVMMLQLIVYIEMDVKLCVPEDEVDPKAFLTVGSLLDFMEELEPLQEVNVNN,not soluble
